Results on 1 substance are retold here after patent publication US20240293504A1.

The assay addresses CD91 (mouse) (UniProt Q91ZX7). Briefly: cell-based or functional assay.
Sequence of UniProt Q91ZX7 (Q91ZX7 20-4545): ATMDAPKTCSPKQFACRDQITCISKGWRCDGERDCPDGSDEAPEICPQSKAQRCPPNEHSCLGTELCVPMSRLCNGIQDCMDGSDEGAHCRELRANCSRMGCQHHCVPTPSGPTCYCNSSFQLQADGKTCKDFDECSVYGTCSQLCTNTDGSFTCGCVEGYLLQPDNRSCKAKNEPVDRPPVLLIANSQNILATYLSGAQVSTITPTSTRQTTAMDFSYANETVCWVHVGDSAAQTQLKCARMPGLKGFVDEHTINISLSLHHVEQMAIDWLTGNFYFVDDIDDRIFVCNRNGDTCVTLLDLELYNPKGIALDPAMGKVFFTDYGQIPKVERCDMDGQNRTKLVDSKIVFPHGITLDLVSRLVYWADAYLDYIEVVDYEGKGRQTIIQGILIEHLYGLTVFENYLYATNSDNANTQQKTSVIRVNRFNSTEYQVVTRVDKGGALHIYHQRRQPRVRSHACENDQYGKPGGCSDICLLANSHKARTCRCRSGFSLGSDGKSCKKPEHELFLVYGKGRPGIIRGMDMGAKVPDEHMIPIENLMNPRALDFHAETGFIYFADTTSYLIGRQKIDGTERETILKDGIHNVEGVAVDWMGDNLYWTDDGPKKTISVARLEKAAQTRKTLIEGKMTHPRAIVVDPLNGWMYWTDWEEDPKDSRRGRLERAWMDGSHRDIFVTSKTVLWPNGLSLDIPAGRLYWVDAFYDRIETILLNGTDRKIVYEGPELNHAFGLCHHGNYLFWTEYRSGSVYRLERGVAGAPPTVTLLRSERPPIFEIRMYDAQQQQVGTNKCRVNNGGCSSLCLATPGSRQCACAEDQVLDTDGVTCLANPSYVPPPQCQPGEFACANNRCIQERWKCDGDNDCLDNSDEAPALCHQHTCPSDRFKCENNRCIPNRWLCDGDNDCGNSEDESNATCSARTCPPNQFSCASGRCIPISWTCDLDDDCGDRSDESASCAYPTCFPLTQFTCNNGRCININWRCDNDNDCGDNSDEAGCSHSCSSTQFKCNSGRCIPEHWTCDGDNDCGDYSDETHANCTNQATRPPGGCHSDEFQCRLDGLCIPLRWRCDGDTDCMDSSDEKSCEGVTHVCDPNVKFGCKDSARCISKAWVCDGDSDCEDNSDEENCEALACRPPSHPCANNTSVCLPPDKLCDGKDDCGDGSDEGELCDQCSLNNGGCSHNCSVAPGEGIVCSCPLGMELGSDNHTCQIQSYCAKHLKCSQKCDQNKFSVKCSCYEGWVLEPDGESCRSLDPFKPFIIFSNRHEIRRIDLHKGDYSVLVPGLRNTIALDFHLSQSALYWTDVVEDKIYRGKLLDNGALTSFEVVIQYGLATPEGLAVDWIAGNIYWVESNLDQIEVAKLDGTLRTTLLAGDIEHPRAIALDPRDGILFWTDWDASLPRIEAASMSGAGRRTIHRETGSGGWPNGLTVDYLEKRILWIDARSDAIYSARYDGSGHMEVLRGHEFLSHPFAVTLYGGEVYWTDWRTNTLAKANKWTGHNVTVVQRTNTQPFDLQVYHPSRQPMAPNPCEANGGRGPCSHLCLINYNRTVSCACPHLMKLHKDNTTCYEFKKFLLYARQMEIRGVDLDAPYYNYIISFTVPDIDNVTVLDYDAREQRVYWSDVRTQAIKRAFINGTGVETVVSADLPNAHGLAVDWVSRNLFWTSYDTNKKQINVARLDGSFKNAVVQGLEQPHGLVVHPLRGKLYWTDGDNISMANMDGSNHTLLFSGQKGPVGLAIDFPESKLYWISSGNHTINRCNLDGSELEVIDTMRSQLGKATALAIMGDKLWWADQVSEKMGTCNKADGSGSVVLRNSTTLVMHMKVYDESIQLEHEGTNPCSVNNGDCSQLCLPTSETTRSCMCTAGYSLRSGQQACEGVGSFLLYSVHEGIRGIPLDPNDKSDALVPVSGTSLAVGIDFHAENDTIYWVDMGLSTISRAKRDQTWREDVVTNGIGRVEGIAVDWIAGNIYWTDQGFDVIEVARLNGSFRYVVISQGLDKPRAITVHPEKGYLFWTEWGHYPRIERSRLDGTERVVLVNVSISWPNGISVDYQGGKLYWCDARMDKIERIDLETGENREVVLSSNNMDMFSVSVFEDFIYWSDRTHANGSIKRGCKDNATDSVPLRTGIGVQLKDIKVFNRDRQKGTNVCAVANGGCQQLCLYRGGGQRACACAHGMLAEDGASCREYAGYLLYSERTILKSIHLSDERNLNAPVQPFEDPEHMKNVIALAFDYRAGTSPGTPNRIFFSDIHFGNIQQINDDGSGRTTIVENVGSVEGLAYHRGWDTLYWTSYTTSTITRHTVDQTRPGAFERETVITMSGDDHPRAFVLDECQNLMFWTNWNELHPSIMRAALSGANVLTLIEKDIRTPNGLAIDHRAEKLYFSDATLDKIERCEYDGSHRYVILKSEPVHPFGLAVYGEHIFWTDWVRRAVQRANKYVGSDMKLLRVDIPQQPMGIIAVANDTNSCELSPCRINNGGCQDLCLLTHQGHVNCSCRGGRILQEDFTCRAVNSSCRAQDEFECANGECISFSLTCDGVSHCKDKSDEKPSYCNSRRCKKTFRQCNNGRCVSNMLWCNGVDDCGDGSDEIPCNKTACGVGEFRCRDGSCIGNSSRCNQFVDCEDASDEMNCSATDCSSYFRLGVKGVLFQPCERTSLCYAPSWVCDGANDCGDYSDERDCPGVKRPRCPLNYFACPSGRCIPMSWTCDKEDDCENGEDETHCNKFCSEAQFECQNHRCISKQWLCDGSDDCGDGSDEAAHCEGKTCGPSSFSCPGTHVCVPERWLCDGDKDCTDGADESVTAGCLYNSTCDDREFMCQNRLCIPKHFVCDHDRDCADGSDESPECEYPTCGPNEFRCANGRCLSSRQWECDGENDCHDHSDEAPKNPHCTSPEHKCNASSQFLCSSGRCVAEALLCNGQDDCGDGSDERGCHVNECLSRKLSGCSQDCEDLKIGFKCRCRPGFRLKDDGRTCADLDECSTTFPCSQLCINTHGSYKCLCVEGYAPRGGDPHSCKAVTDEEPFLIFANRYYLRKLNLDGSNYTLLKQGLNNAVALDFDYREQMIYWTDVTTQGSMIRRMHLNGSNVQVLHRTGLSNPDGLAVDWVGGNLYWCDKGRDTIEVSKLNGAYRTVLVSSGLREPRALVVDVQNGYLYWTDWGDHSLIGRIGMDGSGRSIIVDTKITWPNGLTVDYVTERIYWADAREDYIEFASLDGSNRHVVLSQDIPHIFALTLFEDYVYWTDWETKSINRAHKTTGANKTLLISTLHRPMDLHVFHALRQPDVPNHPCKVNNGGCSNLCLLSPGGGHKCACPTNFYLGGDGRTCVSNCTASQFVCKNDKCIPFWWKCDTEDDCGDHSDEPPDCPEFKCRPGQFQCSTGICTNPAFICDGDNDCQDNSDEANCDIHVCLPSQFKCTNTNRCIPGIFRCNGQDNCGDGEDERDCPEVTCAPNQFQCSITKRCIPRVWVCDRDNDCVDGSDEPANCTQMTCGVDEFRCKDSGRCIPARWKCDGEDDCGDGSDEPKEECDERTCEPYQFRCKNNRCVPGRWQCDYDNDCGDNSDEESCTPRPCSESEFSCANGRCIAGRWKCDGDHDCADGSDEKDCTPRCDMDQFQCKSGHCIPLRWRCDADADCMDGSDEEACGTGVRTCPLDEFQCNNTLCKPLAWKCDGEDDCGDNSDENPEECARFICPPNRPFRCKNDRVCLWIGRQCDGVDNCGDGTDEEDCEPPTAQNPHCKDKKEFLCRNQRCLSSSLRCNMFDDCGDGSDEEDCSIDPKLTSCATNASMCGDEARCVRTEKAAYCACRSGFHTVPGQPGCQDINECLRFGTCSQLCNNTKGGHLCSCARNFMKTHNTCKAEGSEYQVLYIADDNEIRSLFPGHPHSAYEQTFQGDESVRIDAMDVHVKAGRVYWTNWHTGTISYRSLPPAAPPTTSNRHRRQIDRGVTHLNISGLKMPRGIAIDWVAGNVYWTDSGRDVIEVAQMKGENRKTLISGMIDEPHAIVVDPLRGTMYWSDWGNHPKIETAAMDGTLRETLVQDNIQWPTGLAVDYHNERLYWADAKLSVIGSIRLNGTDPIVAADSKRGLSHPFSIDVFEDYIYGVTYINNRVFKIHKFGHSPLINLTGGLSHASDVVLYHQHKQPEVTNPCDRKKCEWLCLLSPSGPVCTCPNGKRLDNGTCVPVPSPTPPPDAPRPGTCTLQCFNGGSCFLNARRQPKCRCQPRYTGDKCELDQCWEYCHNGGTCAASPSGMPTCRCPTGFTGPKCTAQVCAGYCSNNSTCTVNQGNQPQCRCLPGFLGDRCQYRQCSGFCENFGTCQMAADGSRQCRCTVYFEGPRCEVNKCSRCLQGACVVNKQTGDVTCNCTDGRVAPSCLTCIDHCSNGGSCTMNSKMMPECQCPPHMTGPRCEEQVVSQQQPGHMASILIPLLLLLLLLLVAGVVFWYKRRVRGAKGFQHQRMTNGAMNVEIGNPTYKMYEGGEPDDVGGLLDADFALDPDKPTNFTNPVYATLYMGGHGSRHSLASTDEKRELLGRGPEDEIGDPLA

As for calreticulin (CRT) (ligand), the IFN alpha MFI (Fold Change), RAW264.7 M1 macrophages pulsed with calreticulin 10 ug/ml for 20 min stood at 7.5 fold; the IFN beta MFI (Fold Change), RAW264.7 M1 macrophages pulsed with calreticulin 10 ug/ml for 20 min was 7 fold; the IL-12 MFI (Fold Change), RAW264.7 M1 macrophages pulsed with calreticulin 10 ug/ml for 20 min amounted to 3.5 fold; the IL-15 MFI (Fold Change), RAW264.7 M1 macrophages pulsed with calreticulin 10 ug/ml for 20 min turned out to be 3.5 fold.
